Results as given in US9187525B2, “Methods of treating ophthalmic diseases using NPR-B agonists” (Shire Orphan Therapies GmbH, dated 2015).
Numbered stars: 1 amine (or outer) side, 2 acyl side, 3 side chain; on linkers, the order of the positions; unused ones are H or OH. Square brackets hold non-standard residues; d marks the D form. Ends that are not written are not given here. * marks the point of attachment. Dtp = (R)-2,2-dimethylthiazolidine-4-carboxylic acid, CC1(C)SC[C@@H](C(=O)[*:2])N1[*:1]; Ebe = (R)-2-amino-3-(methylsulfanyl)propanoic acid, CSC[C@H](N[*:1])C(=O)[*:2]; Sni = (S)-nipecotic acid, O=C([C@H]1CCCN([*:1])C1)[*:2]; Pro(trans-4-Ph) = O=C(O)[C@@H]1C[C@@H](c2ccccc2)CN1; Phe(3-Cl) = N[C@@H](Cc1cccc(Cl)c1)C(=O)O; Pro(cis-4-F) = O=C(O)[C@@H]1C[C@H](F)CN1; Pro(4S-NH2) = N[C@@H]1CN[C@H](C(=O)O)C1; cisHyp = O=C(O)[C@@H]1C[C@H](O)CN1; Hyp = O=C(O)[C@@H]1C[C@@H](O)CN1; NMeF = CN[C@@H](Cc1ccccc1)C(=O)O; tBuAla = CC(C)(C)C[C@H](N)C(=O)O; Cha = N[C@@H](CC1CCCCC1)C(=O)O; NMeL = CN[C@@H](CC(C)C)C(=O)O; d(αMeP) = C[C@]1(C(=O)O)CCCN1; hLeu = CC(C)CC[C@H](N)C(=O)O; Nle = CCCC[C@H](N)C(=O)O; Octanoyl = CCCCCCCC(=O)*; Nva = CCC[C@H](N)C(=O)O; dAze = O=C(O)[C@H]1CCN1; Hexanoyl = CCCCCC(=O)*; Ac3c = NC1(C(=O)O)CC1; Aib = CC(C)(N)C(=O)O; Occ = octanoic acid; Sar = CNCC(=O)O

Molecular target: T1, natriuretic peptide receptor-B (human)
T1 chain: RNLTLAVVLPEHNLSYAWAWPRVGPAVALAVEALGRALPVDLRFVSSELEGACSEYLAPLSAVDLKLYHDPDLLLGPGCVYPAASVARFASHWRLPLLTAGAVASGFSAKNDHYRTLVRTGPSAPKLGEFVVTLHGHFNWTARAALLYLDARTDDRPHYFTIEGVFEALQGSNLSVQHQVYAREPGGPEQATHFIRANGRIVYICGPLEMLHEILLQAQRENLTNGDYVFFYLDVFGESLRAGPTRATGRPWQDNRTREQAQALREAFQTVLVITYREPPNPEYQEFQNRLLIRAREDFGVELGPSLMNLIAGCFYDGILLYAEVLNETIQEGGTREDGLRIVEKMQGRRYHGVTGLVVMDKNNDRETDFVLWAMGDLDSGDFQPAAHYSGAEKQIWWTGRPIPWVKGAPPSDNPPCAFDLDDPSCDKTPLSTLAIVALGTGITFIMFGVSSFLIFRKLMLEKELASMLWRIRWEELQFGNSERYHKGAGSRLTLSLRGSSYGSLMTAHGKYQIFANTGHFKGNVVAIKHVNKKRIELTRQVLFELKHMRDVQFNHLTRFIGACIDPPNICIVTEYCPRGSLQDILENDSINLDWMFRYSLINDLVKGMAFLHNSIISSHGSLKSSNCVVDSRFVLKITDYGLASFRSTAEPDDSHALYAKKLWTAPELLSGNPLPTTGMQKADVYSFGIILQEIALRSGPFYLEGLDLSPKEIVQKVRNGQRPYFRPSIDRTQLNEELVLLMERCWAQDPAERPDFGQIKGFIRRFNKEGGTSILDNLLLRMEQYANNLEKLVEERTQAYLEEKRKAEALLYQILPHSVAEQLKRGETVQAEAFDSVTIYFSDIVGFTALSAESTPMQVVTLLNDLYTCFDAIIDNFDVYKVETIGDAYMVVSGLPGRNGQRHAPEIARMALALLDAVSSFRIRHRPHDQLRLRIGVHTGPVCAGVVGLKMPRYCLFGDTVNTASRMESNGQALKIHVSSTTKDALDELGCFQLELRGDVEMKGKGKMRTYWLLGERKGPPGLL
Assay: cell-based or functional assay

Q: How did the “EC50 group, cGMP in GTM-3 cells” value turn out when [Occ][dP][NMeF]GLPLDRI-NH2 [JAL-0966] was run?
A: ≤ 15 µM

B1: JAL-0924 (peptide)
peptide: [Occ]AFGLPLNRI-NH2
modifications: not fully specified (residue 2); printed as Occ-ala-Phe-Gly-Leu-Pro-Leu-Asn-Arg-Ile-NH2
Q: B1 was tested. Which “EC50 group, cGMP in GTM-3 cells” value did it give?
A: ≤ 15 µM

B2: JAL-0895 (peptide)
peptide: Octanoyl-AFGLP[NMeL]DRI-NH2
modifications: not fully specified (some residues); printed as Occ-ala-Phe-Gly-Leu-Pro-Nml-Asp-Arg-Ile-NH2
Q: With B2 as the binder, how does the “EC50 group, cGMP in GTM-3 cells” value read?
A: ≤ 5 µM

Q: With [Occ][dP]FGLP[NMeL]DRI-NH2 [JAL-0955_01] as the binder, how does the “EC50 group, cGMP in GTM-3 cells” value read?
A: ≤ 5 µM

B3: JAL-0979 (peptide)
peptide: [Occ]AFGL[Dtp]LDRI-NH2
modifications: not fully specified (residue 2); printed as Occ-ala-Phe-Gly-Leu-Dtp-Leu-Asp-Arg-Ile-NH2
Q: For B3, which “EC50 group, cGMP in GTM-3 cells” value is on record?
A: ≤ 15 µM

Q: For Hexanoyl-[Ebe][dP]FGLPIDRIS[Ebe]-NH2 [JAL-0533], which “EC50 group, cGMP in GTM-3 cells” value is on record?
A: ≤ 15 µM

B4: JAL-0978 (peptide)
peptide: [Occ]AFGL[Pro(cis-4-F)]LDRI-NH2
modifications: not fully specified (residue 2); printed as Occ-ala-Phe-Gly-Leu-Fpr-Leu-Asp-Arg-Ile-NH2
Q: B4 was tested. Which “EC50 group, cGMP in GTM-3 cells” value did it give?
A: ≤ 15 µM

B5: JAL-0898 (peptide)
peptide: Octanoyl-AFGL[Hyp]LDRI-NH2
modifications: not fully specified (some residues); printed as Occ-ala-Phe-Gly-Leu-Hyp-Leu-Asp-Arg-Ile-NH2
Q: How did the “EC50 group, cGMP in GTM-3 cells” value turn out when B5 was run?
A: ≤ 5 µM

Q: For [Occ][Sar]FGLPLDRI-NH2 [JAL-0950], which “EC50 group, cGMP in GTM-3 cells” value is on record?
A: ≤ 15 µM

Q: [Occ][Sni][NMeF]GLPLDRI-NH2 [JAL-0967_01] was tested. Which “EC50 group, cGMP in GTM-3 cells” value did it give?
A: ≤ 15 µM

B6: JAL-0942 (peptide)
peptide: [Occ]AFG[Nle]PLDRI-NH2
modifications: not fully specified (residue 2); printed as Occ-ala-Phe-Gly-Nle-Pro-Leu-Asp-Arg-Ile-NH2
Q: With B6 as the binder, how does the “EC50 group, cGMP in GTM-3 cells” value read?
A: ≤ 15 µM

Q: With [Occ][dAze]FGLPLDRI-NH2 [JAL-0953] as the binder, how does the “EC50 group, cGMP in GTM-3 cells” value read?
A: ≤ 5 µM

Q: For [Occ][dA][Phe(3-Cl)]GLPLDRI-NH2 [JAL-0946], which “EC50 group, cGMP in GTM-3 cells” value is on record?
A: ≤ 15 µM

B7: JAL-0975 (peptide)
peptide: [Occ]AFGL[Pro(trans-4-Ph)]LDRI-NH2
modifications: not fully specified (residue 2); printed as Occ-ala-Phe-Gly-Leu-Eay-Leu-Asp-Arg-Ile-NH2
Q: Which “EC50 group, cGMP in GTM-3 cells” value does the source give for B7 here?
A: ≤ 15 µM

Q: [Occ][dP][NMeF]GLP[NMeL]DRI-NH2 [JAL-0957] was tested. Which “EC50 group, cGMP in GTM-3 cells” value did it give?
A: ≤ 15 µM

B8: JAL-0894 (peptide)
peptide: Octanoyl-AFGLPIDRI-NH2
modifications: not fully specified (some residues); printed as Occ-ala-Phe-Gly-Leu-Pro-Ile-Asp-Arg-Ile-NH2
Q: With B8 as the binder, how does the “EC50 group, cGMP in GTM-3 cells” value read?
A: ≤ 15 µM

B9: JAL-0974 (peptide)
peptide: [Occ]AFGL[Pro(4S-NH2)]LDRI-NH2
modifications: not fully specified (residue 2); printed as Occ-ala-Phe-Gly-Leu-Apr-Leu-Asp-Arg-Ile-NH2
Q: How did the “EC50 group, cGMP in GTM-3 cells” value turn out when B9 was run?
A: ≤ 5 µM

B10: JAL-0929 (peptide)
peptide: [Occ]AFGLPLTRI-NH2
modifications: not fully specified (residue 2); printed as Occ-ala-Phe-Gly-Leu-Pro-Leu-Thr-Arg-Ile-NH2
Q: Which “EC50 group, cGMP in GTM-3 cells” value does the source give for B10 here?
A: ≤ 15 µM

Q: How did the “EC50 group, cGMP in GTM-3 cells” value turn out when [Occ][dA]FGL[d(αMeP)]LDRI-NH2 [JAL-0962] was run?
A: ≤ 15 µM

Q: With [Occ][dA]F[dA]LPLDRI-NH2 [JAL-0944] as the binder, how does the “EC50 group, cGMP in GTM-3 cells” value read?
A: ≤ 15 µM

Q: Which “EC50 group, cGMP in GTM-3 cells” value does the source give for [Occ][dA]FGLP[hLeu]DRI-NH2 [JAL-0959] here?
A: ≤ 15 µM

B11: JAL-0906 (peptide)
peptide: [Occ]AXGLPLDRI-NH2
modifications: not fully specified (residues 2, 3); printed as Occ-ala-Nmf-Gly-Leu-Pro-Leu-Asp-Arg-Ile-NH2
Q: For B11, which “EC50 group, cGMP in GTM-3 cells” value is on record?
A: ≤ 15 µM

B12: JAL-0921 (peptide)
peptide: [Occ]AFGLPLD[Nmr]I-NH2
modifications: not fully specified (residue 2); printed as Occ-ala-Phe-Gly-Leu-Pro-Leu-Asp-Nmr-Ile-NH2
Q: How did the “EC50 group, cGMP in GTM-3 cells” value turn out when B12 was run?
A: ≤ 15 µM

B13: JAL-0926 (peptide)
peptide: [Occ]AFGLPL[Nva]RI-NH2
modifications: not fully specified (residue 2); printed as Occ-ala-Phe-Gly-Leu-Pro-Leu-Nva-Arg-Ile-NH2
Q: For B13, which “EC50 group, cGMP in GTM-3 cells” value is on record?
A: ≤ 15 µM

Q: Which “EC50 group, cGMP in GTM-3 cells” value does the source give for [Occ][Sni]FGLP[NMeL]DRI-NH2 [JAL-0956] here?
A: ≤ 5 µM

Q: How did the “EC50 group, cGMP in GTM-3 cells” value turn out when [Occ][Sni][NMeF]GLP[NMeL]DRI-NH2 [JAL-0958_01] was run?
A: ≤ 5 µM

Q: Which “EC50 group, cGMP in GTM-3 cells” value does the source give for [Occ][dA]F[Ac3c]LPLDRI-NH2 [JAL-0945] here?
A: ≤ 15 µM

B14: JAL-0903 (peptide)
peptide: Octanoyl-AFG[tBuAla]PLDRI-NH2
modifications: not fully specified (some residues); printed as Occ-ala-Phe-Gly-Npg-Pro-Leu-Asp-Arg-Ile-NH2
Q: How did the “EC50 group, cGMP in GTM-3 cells” value turn out when B14 was run?
A: ≤ 15 µM

B15: JAL-0940 (peptide)
peptide: [Occ]AFG[Cha]PLDRI-NH2
modifications: not fully specified (residue 2); printed as Occ-ala-Phe-Gly-Cha-Pro-Leu-Asp-Arg-Ile-NH2
Q: With B15 as the binder, how does the “EC50 group, cGMP in GTM-3 cells” value read?
A: ≤ 15 µM

B16: JAL-0896 (peptide)
peptide: Octanoyl-AFGLP[tBuAla]DRI-NH2
modifications: not fully specified (some residues); printed as Occ-ala-Phe-Gly-Leu-Pro-Npg-Asp-Arg-Ile-NH2
Q: How did the “EC50 group, cGMP in GTM-3 cells” value turn out when B16 was run?
A: ≤ 15 µM

B17: JAL-0927 (peptide)
peptide: [Occ]AFGLPLVRI-NH2
modifications: not fully specified (residue 2); printed as Occ-ala-Phe-Gly-Leu-Pro-Leu-Val-Arg-Ile-NH2
Q: Which “EC50 group, cGMP in GTM-3 cells” value does the source give for B17 here?
A: ≤ 15 µM

Q: With [Occ][dA]FGL[cisHyp]LDRI-NH2 [JAL-0964] as the binder, how does the “EC50 group, cGMP in GTM-3 cells” value read?
A: ≤ 15 µM

Q: Which “EC50 group, cGMP in GTM-3 cells” value does the source give for [Occ]GFGLPLDRI-NH2 [JAL-0951] here?
A: ≤ 15 µM

B18: JAL-0943 (peptide)
peptide: [Occ]AF[Aib]LPLDRI-NH2
modifications: not fully specified (residue 2); printed as Occ-ala-Phe-Aib-Leu-Pro-Leu-Asp-Arg-Ile-NH2
Q: B18 was tested. Which “EC50 group, cGMP in GTM-3 cells” value did it give?
A: ≤ 15 µM

Q: With [Occ][dA][NMeF]GLP[NMeL]DRI-NH2 [JAL-0954] as the binder, how does the “EC50 group, cGMP in GTM-3 cells” value read?
A: ≤ 5 µM
